Experimental data as given in paper PMC6632115.

Target: T1, colicin E3 (Escherichia coli) (UniProt P00646)
T1 sequence: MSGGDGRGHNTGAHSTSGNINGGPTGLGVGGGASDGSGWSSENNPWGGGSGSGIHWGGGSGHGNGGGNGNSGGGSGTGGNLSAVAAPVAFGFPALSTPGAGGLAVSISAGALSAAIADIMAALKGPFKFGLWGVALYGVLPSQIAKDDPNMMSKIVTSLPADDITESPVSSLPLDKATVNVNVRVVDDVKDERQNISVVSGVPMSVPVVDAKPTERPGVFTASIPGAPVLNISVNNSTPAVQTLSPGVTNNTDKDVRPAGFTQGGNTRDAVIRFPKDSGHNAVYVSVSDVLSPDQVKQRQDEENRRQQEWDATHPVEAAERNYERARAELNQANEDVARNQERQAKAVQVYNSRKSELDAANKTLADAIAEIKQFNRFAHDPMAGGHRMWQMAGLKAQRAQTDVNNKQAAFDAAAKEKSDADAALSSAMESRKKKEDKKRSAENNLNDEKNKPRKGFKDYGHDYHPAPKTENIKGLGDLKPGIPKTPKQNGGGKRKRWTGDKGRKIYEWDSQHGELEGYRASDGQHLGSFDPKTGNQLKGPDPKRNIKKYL

B1: E3 immunity protein, co-expressed with colicin E3 in CFPS (natural protein)
chain: MGLKLDLTWFDKSTEDFKGEEYSKDFGDDGSVMESLGVPFKDNVNNGCFDVIAEWVPLLQPYFNHQIDISDNEYFVSFDYRDGDW
effective multiplicity m = -ln(S/S0) of cell killing of K361 indicator cells by 250 ng/mL colicin E3 co-expressed with the immunity protein: 13.5
